Reference: patent publication US20160195533

Legend:
[1] = target: Flag-tagged Snail1 (pCMV-Tag2B N-terminal Flag-tagged Snail1 expression vector, Addgene)
[2] = target: Strep-tagged Snail1 (pEXPR-IBA105-Snail1)
[3] = target: Snail1, endogenous protein of A549, HCC44, HEK293T or H1299 cells
Sequence of Snail1, endogenous protein of A549, HCC44, HEK293T or H1299 cells (chain, as listed by the source): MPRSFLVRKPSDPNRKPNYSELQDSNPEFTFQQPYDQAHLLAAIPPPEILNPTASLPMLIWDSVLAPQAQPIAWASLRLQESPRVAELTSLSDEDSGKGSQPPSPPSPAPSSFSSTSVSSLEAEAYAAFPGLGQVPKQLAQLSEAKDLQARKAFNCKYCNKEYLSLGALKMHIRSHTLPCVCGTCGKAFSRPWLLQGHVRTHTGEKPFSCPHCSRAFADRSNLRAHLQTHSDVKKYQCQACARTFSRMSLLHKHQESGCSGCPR

Sequence of Flag-tagged Snail1 (pCMV-Tag2B N-terminal Flag-tagged Snail1 expression vector, Addgene) (chain, as listed by the source): as above
Sequence of Strep-tagged Snail1 (pEXPR-IBA105-Snail1) (chain, as listed by the source): as above

B1: 2× Strep-tagged EPRS (pEXPR-2×IBA105-EPRS) (protein)
chain: MATLSLTVNSGDPPLGALLAVEHVKDDVSISVEEGKENILHVSENVIFTDVNSILRYLARVATTAGLYGSNLMEHTEIDHWLEFSATKLSSCDSFTSTINELNHCLSLRTYLVGNSLSLADLCVWATLKGNAAWQEQLKQKKAPVHVKRWFGFLEAQQAFQSVGTKWDVSTTKARVAPEKKQDVGKFVELPGAEMGKVTVRFPPEASGYLHIGHAKAALLNQHYQVNFKGKLIMRFDDTNPEKEKEDFEKVILEDVAMLHIKPDQFTYTSDHFETIMKYAEKLIQEGKAYVDDTPAEQMKAEREQRIDSKHRKNPIEKNLQMWEEMKKGSQFGQSCCLRAKIDMSSNNGCMRDPTLYRCKIQPHPRTGNKYNVYPTYDFACPIVDSIEGVTHALRTTEYHDRDEQFYWIIEALGIRKPYIWEYSRLNLNNTVLSKRKLTWFVNEGLVDGWDDPRFPTVRGVLRRGMTVEGLKQFIAAQGSSRSVVNMEWDKIWAFNKKVIDPVAPRYVALLKKEVIPVNVPEAQEEMKEVAKHPKNPEVGLKPVWYSPKVFIEGADAETFSEGEMVTFINWGNLNITKIHKNADGKIISLDAKLNLENKDYKKTTKVTWLAETTHALPIPVICVTYEHLITKPVLGKDEDFKQYVNKNSKHEELMLGDPCLKDLKKGDIIQLQRRGFFICDQPYEPVSPYSCKEAPCVLIYIPDGHTKEMPTSGSKEKTKVEATKNETSAPFKERPTPSLNNNCTTSEDSLVLYNRVAVQGDVVRELKAKKAPKEDVDAAVKQLLSLKAEYKEKTGQEYKPGNPPAEIGQNISSNSSASILESKSLYDEVAAQGEVVRKLKAEKSPKAKINEAVECLLSLKAQYKEKTGKEYIPGQPPLSQSSDSSPTRNSEPAGLETPEAKVLFDKVASQGEVVRKLKTEKAPKDQVDIAVQELLQLKAQYKSLIGVEYKPVSATGAEDKDKKKKEKENKSEKQNKPQKQNDGQRKDPSKNQGGGLSSSGAGEGQGPKKQTRLGLEAKKEENLADWYSQVITKSEMIEYHDISGCYILRPWAYAIWEAIKDFFDAEIKKLGVENCYFPMFVSQSALEKEKTHVADFAPEVAWVTRSGKTELAEPIAIRPTSETVMYPAYAKWVQSHRDLPIKLNQWCNVVRWEFKHPQPFLRTREFLWQEGHSAFATMEEAAEEVLQILDLYAQVYEELLAIPVVKGRKTEKEKFAGGDYTTTIEAFISASGRAIQGGTSHHLGQNFSKMFEIVFEDPKIPGEKQFAYQNSWGLTTRTIGVMTMVHGDNMGLVLPPRVACVQVVIIPCGITNALSEEDKEALIAKCNDYRRRLLSVNIRVRADLRDNYSPGWKFNHWELKGVPIRLEVGPRDMKSCQFVAVRRDTGEKLTVAENEAETKLQAILEDIQVTLFTRASEDLKTHMVVANTMEDFQKILDSGKIVQIPFCGEIDCEDWIKKTTARDQDLEPGAPSMGAKSLCIPFKPLCELQPGAKCVCGKNPAKYYTLFGRSY
protein expression level of Snail1, anti-Flag immunoblot (HEK293T) [1]: the protein expression level of Snail1 increased more when overexpressed together with EPRS through co-transfection than when overexpressed alone

B2: Strep-tagged WHEP-PRS domain of EPRS (pEXPR-IBA105-PRS) (protein)
chain: VEATKNETSAPFKERPTPSLNNNCTTSEDSLVLYNRVAVQGDVVRELKAKKAPKEDVDAAVKQLLSLKAEYKEKTGQEYKPGNPPAEIGQNISSNSSASILESKSLYDEVAAQGEVVRKLKAEKSPKAKINEAVECLLSLKAQYKEKTGKEYIPGQPPLSQSSDSSPTRNSEPAGLETPEAKVLFDKVASQGEVVRKLKTEKAPKDQVDIAVQELLQLKAQYKSLIGVEYKPVSATGAEDKDKKKKEKENKSEKQNKPQKQNDGQRKDPSKNQGGGLSSSGAGEGQGPKKQTRLGLEAKKEENLADWYSQVITKSEMIEYHDISGCYILRPWAYAIWEAIKDFFDAEIKKLGVENCYFPMFVSQSALEKEKTHVADFAPEVAWVTRSGKTELAEPIAIRPTSETVMYPAYAKWVQSHRDLPIKLNQWCNVVRWEFKHPQPFLRTREFLWQEGHSAFATMEEAAEEVLQILDLYAQVYEELLAIPVVKGRKTEKEKFAGGDYTTTIEAFISASGRAIQGGTSHHLGQNFSKMFEIVFEDPKIPGEKQFAYQNSWGLTTRTIGVMTMVHGDNMGLVLPPRVACVQVVIIPCGITNALSEEDKEALIAKCNDYRRRLLSVNIRVRADLRDNYSPGWKFNHWELKGVPIRLEVGPRDMKSCQFVAVRRDTGEKLTVAENEAETKLQAILEDIQVTLFTRASEDLKTHMVVANTMEDFQKILDSGKIVQIPFCGEIDCEDWIKKTTARDQDLEPGAPSMGAKSLCIPFKPLCELQPGAKCVCGKNPAKYYTLFGRSY
Snail1 stability, anti-Flag immunoblot (HEK293T) [1]: the WHEP-PRS fragment rather than ERS-WHEP fragment in the EPRS more contributed to the Snail1 stability

B3: Strep-tagged ERS-WHEP domain of EPRS (pEXPR-IBA105-ERS) (protein)
chain: MATLSLTVNSGDPPLGALLAVEHVKDDVSISVEEGKENILHVSENVIFTDVNSILRYLARVATTAGLYGSNLMEHTEIDHWLEFSATKLSSCDSFTSTINELNHCLSLRTYLVGNSLSLADLCVWATLKGNAAWQEQLKQKKAPVHVKRWFGFLEAQQAFQSVGTKWDVSTTKARVAPEKKQDVGKFVELPGAEMGKVTVRFPPEASGYLHIGHAKAALLNQHYQVNFKGKLIMRFDDTNPEKEKEDFEKVILEDVAMLHIKPDQFTYTSDHFETIMKYAEKLIQEGKAYVDDTPAEQMKAEREQRIDSKHRKNPIEKNLQMWEEMKKGSQFGQSCCLRAKIDMSSNNGCMRDPTLYRCKIQPHPRTGNKYNVYPTYDFACPIVDSIEGVTHALRTTEYHDRDEQFYWIIEALGIRKPYIWEYSRLNLNNTVLSKRKLTWFVNEGLVDGWDDPRFPTVRGVLRRGMTVEGLKQFIAAQGSSRSVVNMEWDKIWAFNKKVIDPVAPRYVALLKKEVIPVNVPEAQEEMKEVAKHPKNPEVGLKPVWYSPKVFIEGADAETFSEGEMVTFINWGNLNITKIHKNADGKIISLDAKLNLENKDYKKTTKVTWLAETTHALPIPVICVTYEHLITKPVLGKDEDFKQYVNKNSKHEELMLGDPCLKDLKKGDIIQLQRRGFFICDQPYEPVSPYSCKEAPCVLIYIPDGHTKEMPTSGSKEKTKVEATKNETSAPFKERPTPSLNNNCTTSEDSLVLYNRVAVQGDVVRELKAKKAPKEDVDAAVKQLLSLKAEYKEKTGQEYKPGNPPAEIGQNISSNSSASILESKSLYDEVAAQGEVVRKLKAEKSPKAKINEAVECLLSLKAQYKEKTGKEYIPGQPPLSQSSDSSPTRNSEPAGLETPEAKVLFDKVASQGEVVRKLKTEKAPKDQVDIAVQELLQLKAQYKSLIGVEYKPVSATGAEDKDKKKKEKENKSEKQNKPQKQNDGQRKDPSKNQGGGLSSS
Snail1 stability, anti-Flag immunoblot (HEK293T) [1]: the WHEP-PRS fragment rather than ERS-WHEP fragment in the EPRS more contributed to the Snail1 stability

B4: Flag-tagged EPRS (human Flag-tagged EPRS expression vector, Origene) (protein)
chain: B1 chain
ubiquitination of Snail1 (streptavidin pull-down, anti-HA immunoblot) [2]: the ubiquitination was reduced in the EPRS overexpressed experimental group

B5: glutamyl-prolyl-tRNA synthetase (EPRS), endogenous protein of A549 or HEK293T cells (protein)
chain: B1 chain
EMT markers after EPRS knock-down (immunoblot, A549) [3]: at the time of EPRS knock-down, the Snail1 and p-SMAD3 was reduced and the E-cadherin was increased. This indicates that the EMT progress was suppressed.
